Patent US20030148417

How the values were obtained:
[1] = molecular target: bovine haemoglobin, P01966
[2] = molecular target: Pepstatin A

bovine haemoglobin, P01966, sequence (P01966 2-142, chain 1 of 2): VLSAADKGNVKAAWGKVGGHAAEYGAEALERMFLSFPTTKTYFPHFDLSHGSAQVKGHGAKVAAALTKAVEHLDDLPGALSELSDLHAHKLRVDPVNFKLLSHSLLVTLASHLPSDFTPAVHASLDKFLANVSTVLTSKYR
bovine haemoglobin, P01966, sequence (chain, as listed by the source, chain 2 of 2): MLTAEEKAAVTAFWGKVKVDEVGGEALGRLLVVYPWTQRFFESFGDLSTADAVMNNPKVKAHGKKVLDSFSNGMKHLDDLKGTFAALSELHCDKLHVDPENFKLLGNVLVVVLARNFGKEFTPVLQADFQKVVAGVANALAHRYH

B1: recombinant TcAP2 protein (aspartic endoproteinase from Theobroma cacao, secreted by Yarrowia lipolytica clone pCY330-33) (protein)
chain: VSNDGLVRIGLKKMKLDPNNRLAARLDSKDGEALRAFIKKYRFRNNLGDSEETDIVALKNYMDAQYYGEIGIGTPTQKFTVIFDTGSSNLWVSSTKCYFSVACYFHEKYKASDSSTYKKDGKPASIQYGTGAISGFFSYDHVQVGDLVVKDQEFIEATKEPGLTFMVAKFDGILGLGFKEISVGDAVPVWYNMIKQGLIKEPVFSFWLNRNVDEEAGGEIVFGGVDPNHYKGKHTYVPVTQKGYWQFDMGDVLIADKPTGYCAGSCAAIADSGTSLLAGPSTVITMINHAIGATGVVSQECKAVVQQYGRTIIDLLIAEAQPQKICSQIGLCTFNGAHGVSTGIESVVDESNGKSSGVLRDAMCPACEMAVVWMQNQVRQNQTQDRILSYVNELCDRVPNPMGESAVDCGSLSSMPTISFTIGGKVFDLTPEEYILKVGEGSEAQCISGFTALDIPPPRGPLWILGDIFMGRYHTVFDFGKLRVGFAEAAHHH
In the case of B1, the “hydrolysis of bovine haemoglobin (OPA assay, pH 3, 42 C)” value [1] is reported as 25.8±1.45 pmoles L-leucine/min/mg protein, the “endoprotease activity (hydrolysis of bovine haemoglobin)” value [2] is reported as “completely inhibited by 2 µM pepstatin” and the “pepstatin insensitive activity (hydrolysis of bovine haemoglobin, 2 µM pepstatin)” value [2] is reported as 1.91±1.26 pmoles L-leucine/min/mg protein, 6.65%.
